{
  "source": "paper PMC10275583",
  "about": "“A symmetry mismatch unraveled: How phage HK97 scaffold flexibly accommodates a 12-fold pore at a 5-fold viral capsid vertex” (Science Advances, 2023)",
  "proteins": {"B1": {"name": "bacteriophage HK97 portal protein (natural protein, UniProt P49859 1-424, looked up)", "chain": "MEEPKYTIDLRTNNGWWARLKSWFVGGRLVTPNQGSQTGPVSAHGYLGDSSINDERILQISTVWRCVSLISTLTACLPLDVFETDQNDNRKKVDLSNPLARLLRYSPNQYMTAQEFREAMTMQLCFYGNAYALVDRNSAGDVISLLPLQSANMDVKLVGKKVVYRYQRDSEYADFSQKEIFHLKGFGFTGLVGLSPIAFACKSAGVAVAMEDQQRDFFANGAKSPQILSTGEKVLTEQQRSQVEENFKEIAGGPVKKRLWILEAGFSTSAIGVTPQDAEMMASRKFQVSELARFFGVPPHLVGDVEKSTSWGSGIEQQNLGFLQYTLQPYISRWENSIQRWLIPSKDVGRLHAEHNLDGLLRGDSASRAAFMKAMGESGLRTINEMRRTDNMPPLPGGDVAMRQAQYVPITDLGTNKEPRNNGA", "notes": "Portal protein of bacteriophage HK97, wild-type gene 3; 50 N-terminal residues are not visible in the density map and are missing from the model; Dodecamer at one vertex of Prohead I; also called gene 3 product; dodecameric portal complex; source: E. coli BL21 (DE3), plasmid pVPB expressing HK97 genes 3 and 5; purified within Prohead I particles (PEG precipitation, ultracentrifugation, glycerol …)"}},
  "biological_target": "the molecule itself",
  "test": "cryo-EM structure; HK97 Prohead I particles with portal, purified from E. coli co-expressing genes 3 and 5; buffer 100 mM KCl, 20 mM potassium phosphate pH 7.5; icosahedral map 3.6 A, focused reconstructions of penton vertex (C5, 3.0 A) and portal vertex (no symmetry 3.6 A, C12 3.2 A)",
  "data": [
    {"protein": "B1", "values": [
      {"measurement": "stoichiometry N", "result": 12}
    ]}
  ]
}
